Consider two proteins from ChEMBL document CHEMBL2074551, “Drug resistance and ATP-dependent conjugate transport mediated by the apical multidrug resistance protein, MRP2, permanently expressed in human and canine cells” (Mol Pharmacol, 1999).

Substrate in data set [1]: C[C@]12CC[C@@H]3c4ccc(O)cc4CC[C@H]3[C@@H]1CC[C@@H]2O[C@@H]1O[C@H](C(=O)O)[C@@H](O)[C@H](O)[C@H]1O
Nature of the data set: (§1) TP_TRANSPORTER: uptake in membrane vesicle from MRP2-expressing HEK-293 cells. It counts as functional, cell membranes, HEK293.

Substrate in data set [2]: CCCCC/C=C\C\C=C/C=C/C=C/[C@@H](SC[C@@H](NC(=O)CC[C@H](N)C(=O)O)C(=O)NCC(=O)O)[C@@H](O)CCCC(=O)O
Described as §1. It counts as functional, cell membranes, HEK293.

B1: ATP-binding cassette sub-family C member 2 (Homo sapiens) (protein)
chain: MLEKFCNSTFWNSSFLDSPEADLPLCFEQTVLVWIPLGYLWLLAPWQLLHVYKSRTKRSSTTKLYLAKQVFVGFLLILAAIELALVLTEDSGQATVPAVRYTNPSLYLGTWLLVLLIQYSRQWCVQKNSWFLSLFWILSILCGTFQFQTLIRTLLQGDNSNLAYSCLFFISYGFQILILIFSAFSENNESSNNPSSIASFLSSITYSWYDSIILKGYKRPLTLEDVWEVDEEMKTKTLVSKFETHMKRELQKARRALQRRQEKSSQQNSGARLPGLNKNQSQSQDALVLEDVEKKKKKSGTKKDVPKSWLMKALFKTFYMVLLKSFLLKLVNDIFTFVSPQLLKLLISFASDRDTYLWIGYLCAILLFTAALIQSFCLQCYFQLCFKLGVKVRTAIMASVYKKALTLSNLARKEYTVGETVNLMSVDAQKLMDVTNFMHMLWSSVLQIVLSIFFLWRELGPSVLAGVGVMVLVIPINAILSTKSKTIQVKNMKNKDKRLKIMNEILSGIKILKYFAWEPSFRDQVQNLRKKELKNLLAFSQLQCVVIFVFQLTPVLVSVVTFSVYVLVDSNNILDAQKAFTSITLFNILRFPLSMLPMMISSMLQASVSTERLEKYLGGDDLDTSAIRHDCNFDKAMQFSEASFTWEHDSEATVRDVNLDIMAGQLVAVIGPVGSGKSSLISAMLGEMENVHGHITIKGTTAYVPQQSWIQNGTIKDNILFGTEFNEKRYQQVLEACALLPDLEMLPGGDLAEIGEKGINLSGGQKQRISLARATYQNLDIYLLDDPLSAVDAHVGKHIFNKVLGPNGLLKGKTRLLVTHSMHFLPQVDEIVVLGNGTIVEKGSYSALLAKKGEFAKNLKTFLRHTGPEEEATVHDGSEEEDDDYGLISSVEEIPEDAASITMRRENSFRRTLSRSSRSNGRHLKSLRNSLKTRNVNSLKEDEELVKGQKLIKKEFIETGKVKFSIYLEYLQAIGLFSIFFIILAFVMNSVAFIGSNLWLSAWTSDSKIFNSTDYPASQRDMRVGVYGALGLAQGIFVFIAHFWSAFGFVHASNILHKQLLNNILRAPMRFFDTTPTGRIVNRFAGDISTVDDTLPQSLRSWITCFLGIISTLVMICMATPVFTIIVIPLGIIYVSVQMFYVSTSRQLRRLDSVTRSPIYSHFSETVSGLPVIRAFEHQQRFLKHNEVRIDTNQKCVFSWITSNRWLAIRLELVGNLTVFFSALMMVIYRDTLSGDTVGFVLSNALNITQTLNWLVRMTSEIETNIVAVERITEYTKVENEAPWVTDKRPPPDWPSKGKIQFNNYQVRYRPELDLVLRGITCDIGSMEKIGVVGRTGAGKSSLTNCLFRILEAAGGQIIIDGVDIASIGLHDLREKLTIIPQDPILFSGSLRMNLDPFNNYSDEEIWKALELAHLKSFVASLQLGLSHEVTEAGGNLSIGQRQLLCLGRALLRKSKILVLDEATAAVDLETDNLIQTTIQNEFAHCTVITIAHRLHTIMDSDKVMVLDNGKIIECGSPEELLQIPGPFYFMAKEAGIENVNSTKF
For B1, the Michaelis-Menten constant (Km) – broadly, the substrate concentration at which the rate is half of its maximum – amounted to 7.2 µM in data set [1] and 1 µM in data set [2].

B2: ATP-binding cassette sub-family C member 2 (Rattus norvegicus) (protein)
chain: MDKFCNSTFWDLSLLESPEADLPLCFEQTVLVWIPLGFLWLLAPWQLYSVYRSRTKRSSITKFYLAKQVFVVFLLILAAIDLSLALTEDTGQATVPPVRYTNPILYLCTWLLVLAVQHSRQWCVRKNSWFLSLFWILSVLCGVFQFQTLIRALLKDSKSNMAYSYLFFVSYGFQIVLLILTAFSGPSDSTQTPSVTASFLSSITFSWYDRTVLKGYKHPLTLEDVWDIDEGFKTRSVTSKFEAAMTKDLQKARQAFQRRLQKSQRKPEATLHGLNKKQSQSQDVLVLEEAKKKSEKTTKDYPKSWLIKSLFKTFHVVILKSFILKLIHDLLVFLNPQLLKLLIGFVKSSNSYVWFGYICAILMFAVTLIQSFCLQSYFQHCFVLGMCVRTTVMSSIYKKALTLSNLARKQYTIGETVNLMSVDSQKLMDATNYMQLVWSSVIQITLSIFFLWRELGPSILAGVGVMVLLIPVNGVLATKIRNIQVQNMKNKDKRLKIMNEILSGIKILKYFAWEPSFQEQVQGIRKKELKNLLRFGQLQSLLIFILQITPILVSVVTFSVYVLVDSANVLNAEKAFTSITLFNILRFPLSMLPMVTSSILQASVSVDRLERYLGGDDLDTSAIRRVSNFDKAVKFSEASFTWDPDLEATIQDVNLDIKPGQLVAVVGTVGSGKSSLVSAMLGEMENVHGHITIQGSTAYVPQQSWIQNGTIKDNILFGSEYNEKKYQQVLKACALLPDLEILPGGDMAEIGEKGINLSGGQKQRVSLARAAYQDADIYILDDPLSAVDAHVGKHIFNKVVGPNGLLAGKTRIFVTHGIHFLPQVDEIVVLGKGTILEKGSYRDLLDKKGVFARNWKTFMKHSGPEGEATVNNDSEAEDDDDGLIPTMEEIPEDAASLAMRRENSLRRTLSRSSRSSSRRGKSLKNSLKIKNVNVLKEKEKEVEGQKLIKKEFVETGKVKFSIYLKYLQAVGWWSILFIILFYGLNNVAFIGSNLWLSAWTSDSDNLNGTNNSSSHRDMRIGVFGALGLAQGICLLISTLWSIYACRNASKALHGQLLTNILRAPMRFFDTTPTGRIVNRFSGDISTVDDLLPQTLRSWMMCFFGIAGTLVMICMATPVFAIIIIPLSILYISVQVFYVATSRQLRRLDSVTKSPIYSHFSETVTGLPIIRAFEHQQRFLAWNEKQIDINQKCVFSWITSNRWLAIRLELVGNLVVFCSALLLVIYRKTLTGDVVGFVLSNALNITQTLNWLVRMTSEAETNIVAVERISEYINVENEAPWVTDKRPPADWPRHGEIQFNNYQVRYRPELDLVLKGITCNIKSGEKVGVVGRTGAGKSSLTNCLFRILESAGGQIIIDGIDVASIGLHDLRERLTIIPQDPILFSGSLRMNLDPFNKYSDEEVWRALELAHLRSFVSGLQLGLLSEVTEGGDNLSIGQRQLLCLGRAVLRKSKILVLDEATAAVDLETDSLIQTTIRKEFSQCTVITIAHRLHTIMDSDKIMVLDNGKIVEYGSPEELLSNRGSFYLMAKEAGIENVNHTEL
As to B2, the Michaelis constant (Km) in data set [1] is 6.9 µM; in data set [2], 1.1 µM.
